Laboratory results published in US6287561.

Target: gp120 of HIV-1 RF strain (HIV-1 RF strain) (UniProt P04579)

Q: Which p24 antigen level in H9 cell supernatants, percent of control does the source give for LMW-UK (from UniProt P00749) here?
A: Its p24 antigen level in H9 cell supernatants, percent of control is 4 % of control.
